According to patent US20220089722A1 (NANTONG YICHEN BIOPHARMA, published 2022):

B1: IgFD-6(anti-CD19/CD3) (bispecific antibody, human IgG1, kappa)
chain 1: EVQLVESGGGLVQPGGSLRLSCAASGFTFNTYAMNWVRQAPGKGLEWVARIRSKYNNYATYYADSVKDRFTISRDDSKNTLYLQMNSLRAEDTAVYYCVRHGNFGNSYVSWFAYWGQGTLVTVSSASTKGPSVFPLAPSSKSTSGGTAALGCLVKDYFPEPVTVSWNSGALTSGVHTFPAVLQSSGLYSLSSVVTVPSSSLGTQTYICNVNHKPSNTKVDKKVEPKSCDKTHTCPPCPAPPVAGPSVFLFPPKPKDTLMISRTPEVTCVVVDVSHEDPEVKFNWYVDGVEVHNAKTKPREEQYNSTYRVVSVLTVLHQDWLNGKEYKCKVSNKGLPSSIEKTISKAKGQPREPQVYTLPPSRDELTKNQVSLTCLVKGFYPSDIAVEWESNGQPENNYKTTPPVLDSDGSFFLYSKLTVDKSRWQQGNVFSCSVMHEALHNHYTQKSLSLSPGKSGGGGSGGGGSGGGGSDIQMTQTTSSLSASLGDRVTISCRASQDISKYLNWYQQKPDGTVKLLIYHTSRLHSGVPSRFSGSGSGTDYSLTISNLEQEDIATYFCQQGNTLPYTFGGGTKLEITGGGGSGGGGSGGGGSEVKLQESGPGLVAPSQSLSVTCTVSGVSLPDYGVSWIRQPPRKGLEWLGVIWGSETTYYNSALKSRLTIIKDNSKSQVFLKMNSLQTDDTAIYYCAKHYYYGGSYAMDYWGQGTSVTVSS
chain 2: QAVVTQEPSLTVSPGGTVTLTCRSSTGAVTTSNYANWVQQKPDHLFRGLIGGTNKRAPGTPARFSGSLLGDKAALTISGAQPEDEAEYYCALWYSNLWVFGGGTKLTVLKRTVAAPSVFIFPPSDEQLKSGTASVVCLLNNFYPREAKVQWKVDNALQSGNSQESVTEQDSKDSTYSLSSTLTLSKADYEKHKVYACEVTHQGLSSPVTKSFNRGECDKTHTCPPCPAPPVAGPSVFLFPPKPKDTLMISRTPEVTCVVVDVSHEDPEVKFNWYVDGVEVHNAKTKPREEQYNSTYRVVSVLTVLHQDWLNGKEYKCKVSNKGLPSSIEKTISKAKGQPREPQVYTLPPSRDELTKNQVSLTCLVKGFYPSDIAVEWESNGQPENNYKTTPPVLDSDGSFFLYSKLTVDKSRWQQGNVFSCSVMHEALHNHYTQKSLSLSPGK
B2: IgFD-7(anti-CD19/CD3) (bispecific antibody, human IgG1, kappa)
chain 1: EVQLVESGGGLVQPGGSLRLSCAASGFTFNTYAMNWVRQAPGKGLEWVARIRSKYNNYATYYADSVKDRFTISRDDSKNTLYLQMNSLRAEDTAVYYCVRHGNFGNSYVSWFAYWGQGTLVTVSSASTKGPSVFPLAPSSKSTSGGTAALGCLVKDYFPEPVTVSWNSGALTSGVHTFPAVLQSSGLYSLSSVVTVPSSSLGTQTYICNVNHKPSNTKVDKKVEPKSCDKTHTCPPCPAPPVAGPSVFLFPPKPKDTLMISRTPEVTCVVVDVSHEDPEVKFNWYVDGVEVHNAKTKPREEQYNSTYRVVSVLTVLHQDWLNGKEYKCKVSNKGLPSSIEKTISKAKGQPREPQVYTLPPSRDELTKNQVSLTCLVKGFYPSDIAVEWESNGQPENNYKTTPPVLDSDGSFFLYSKLTVDKSRWQQGNVFSCSVMHEALHNHYTQKSLSLSPGK
chain 2: QAVVTQEPSLTVSPGGTVTLTCRSSTGAVTTSNYANWVQQKPDHLFRGLIGGTNKRAPGTPARFSGSLLGDKAALTISGAQPEDEAEYYCALWYSNLWVFGGGTKLTVLKRTVAAPSVFIFPPSDEQLKSGTASVVCLLNNFYPREAKVQWKVDNALQSGNSQESVTEQDSKDSTYSLSSTLTLSKADYEKHKVYACEVTHQGLSSPVTKSFNRGECDKTHTCPPCPAPPVAGPSVFLFPPKPKDTLMISRTPEVTCVVVDVSHEDPEVKFNWYVDGVEVHNAKTKPREEQYNSTYRVVSVLTVLHQDWLNGKEYKCKVSNKGLPSSIEKTISKAKGQPREPQVYTLPPSRDELTKNQVSLTCLVKGFYPSDIAVEWESNGQPENNYKTTPPVLDSDGSFFLYSKLTVDKSRWQQGNVFSCSVMHEALHNHYTQKSLSLSPGKSGGGGSGGGGSGGGGSDIQMTQTTSSLSASLGDRVTISCRASQDISKYLNWYQQKPDGTVKLLIYHTSRLHSGVPSRFSGSGSGTDYSLTISNLEQEDIATYFCQQGNTLPYTFGGGTKLEITGGGGSGGGGSGGGGSEVKLQESGPGLVAPSQSLSVTCTVSGVSLPDYGVSWIRQPPRKGLEWLGVIWGSETTYYNSALKSRLTIIKDNSKSQVFLKMNSLQTDDTAIYYCAKHYYYGGSYAMDYWGQGTSVTVSS
B3: IgFD-37(anti-CD3/MICA) (Fc fusion)
chain 1: EVQLVESGGGLVQPGGSLRLSCAASGFTFNTYAMNWVRQAPGKGLEWVARIRSKYNNYATYYADSVKDRFTISRDDSKNTLYLQMNSLRAEDTAVYYCVRHGNFGNSYVSWFAYWGQGTLVTVSSASTKGPSVFPLAPSSKSTSGGTAALGCLVKDYFPEPVTVSWNSGALTSGVHTFPAVLQSSGLYSLSSVVTVPSSSLGTQTYICNVNHKPSNTKVDKKVEPKSCDKTHTCPPCPAPPVAGPSVFLFPPKPKDTLMISRTPEVTCVVVDVSHEDPEVKFNWYVDGVEVHNAKTKPREEQYNSTYRVVSVLTVLHQDWLNGKEYKCKVSNKGLPSSIEKTISKAKGQPREPQVYTLPPCRDELTKNQVSLWCLVKGFYPSDIAVEWESNGQPENNYKTTPPVLDSDGSFFLYSKLTVDKSRWQQGNVFSCSVMHEALHNHYTQKSLSLSPGKGGSGAKLAALKAKLAALKGGGGSFLNSLFNQEVQIPLTESYCGPCPKNWICYKNNCYQFFDESKNWYESQASCMSQNASLLKVYSKEDQDLLKLVKSYHWMGLVHIPTNGSWQWEDGSILSPNLLTIIEMQKGDCALYASSFKGYIENCSTPNTYICMQRTV
chain 2: QAVVTQEPSLTVSPGGTVTLTCRSSTGAVTTSNYANWVQQKPDHLFRGLIGGTNKRAPGTPARFSGSLLGDKAALTISGAQPEDEAEYYCALWYSNLWVFGGGTKLTVLKRTVAAPSVFIFPPSDEQLKSGTASVVCLLNNFYPREAKVQWKVDNALQSGNSQESVTEQDSKDSTYSLSSTLTLSKADYEKHKVYACEVTHQGLSSPVTKSFNRGECDKTHTCPPCPAPPVAGPSVFLFPPKPKDTLMISRTPEVTCVVVDVSHEDPEVKFNWYVDGVEVHNAKTKPREEQYNSTYRVVSVLTVLHQDWLNGKEYKCKVSNKGLPSSIEKTISKAKGQPREPQVCTLPPSRDELTKNQVSLSCAVKGFYPSDIAVEWESNGQPENNYKTTPPVLDSDGSFFLVSKLTVDKSRWQQGNVFSCSVMHEALHNHYTQKSLSLSPGKGGSGAKLAALKAKLAALKGGGGSFLNSLFNQEVQIPLTESYCGPCPKNWICYKNNCYQFFDESKNWYESQASCMSQNASLLKVYSKEDQDLLKLVKSYHWMGLVHIPTNGSWQWEDGSILSPNLLTIIEMQKGDCALYASSFKGYIENCSTPNTYICMQRTV

What was measured:
CD19 on NALM-6 cells = target: T1, CD19 on NALM-6 cells (UniProt P15391 20-556, limits assumed); experiment: cell-based or functional assay
T1 sequence (looked up): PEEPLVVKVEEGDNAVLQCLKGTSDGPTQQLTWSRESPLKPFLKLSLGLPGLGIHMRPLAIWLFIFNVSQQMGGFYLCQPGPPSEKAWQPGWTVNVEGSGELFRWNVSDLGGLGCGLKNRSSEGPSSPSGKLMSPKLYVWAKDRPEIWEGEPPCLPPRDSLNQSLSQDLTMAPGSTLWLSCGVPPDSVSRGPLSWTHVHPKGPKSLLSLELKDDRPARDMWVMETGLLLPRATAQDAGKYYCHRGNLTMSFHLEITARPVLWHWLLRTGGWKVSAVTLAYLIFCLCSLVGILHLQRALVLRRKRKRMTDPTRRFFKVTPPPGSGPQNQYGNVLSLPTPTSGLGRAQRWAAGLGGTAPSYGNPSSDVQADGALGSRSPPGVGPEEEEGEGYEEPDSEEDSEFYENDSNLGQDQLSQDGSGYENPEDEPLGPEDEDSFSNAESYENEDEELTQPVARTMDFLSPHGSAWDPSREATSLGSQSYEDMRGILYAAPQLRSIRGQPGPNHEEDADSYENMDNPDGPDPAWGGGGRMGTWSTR

[1] = target: MICA on PANC-1, BXPC-3 or K562 cells (UniProt Q29983 24-383, limits assumed); experiment: cell-based or functional assay
Chain of MICA on PANC-1, BXPC-3 or K562 cells (Q29983 24-383 limits assumed): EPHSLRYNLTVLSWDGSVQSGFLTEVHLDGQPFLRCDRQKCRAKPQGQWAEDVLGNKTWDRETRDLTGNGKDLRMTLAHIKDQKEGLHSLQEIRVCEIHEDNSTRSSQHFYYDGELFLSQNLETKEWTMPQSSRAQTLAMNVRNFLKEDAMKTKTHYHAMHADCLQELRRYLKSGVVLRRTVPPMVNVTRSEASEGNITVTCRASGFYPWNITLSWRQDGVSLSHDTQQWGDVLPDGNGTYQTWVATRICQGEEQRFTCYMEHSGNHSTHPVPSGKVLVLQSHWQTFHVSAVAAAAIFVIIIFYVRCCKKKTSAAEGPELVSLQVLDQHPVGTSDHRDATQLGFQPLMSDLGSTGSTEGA

| Binder | Promotion for the specific killing effect of PBMCs on target cells by heterodimers (EC50, pM); Nalm-6 cells (CD19 on NALM-6 cells) [pM] | Promotion for the specific killing effect of PBMCs on target cells by heterodimers (EC50, pM); K562 cells, LDH assay [1] [pM] | Promotion for the specific killing effect of PBMCs on target cells by heterodimers (EC50, pM); PANC-1 cells, LDH assay [1] [pM] |
| --- | --- | --- | --- |
| B1 | 14.9 |  |  |
| B2 | 11.7 |  |  |
| B3 |  | 1090 | 676 |
